How the values were obtained:
[1] = molecular target: ribosomal protein S8 (E. coli) (Escherichia coli, UniProt P0A7W7 1-130); test: fluorescence anisotropy; 10 mM Mg acetate; settings: protein: recombinant, tags: N-terminal 6xHis (pET28b NheI-XhoI), label: 5'-fluorescein, hairpin
[2] = molecular target: ribosomal protein S8 (B. anthracis) (Bacillus anthracis, UniProt Q81VR6 1-132); test: fluorescence anisotropy; 10 mM Mg acetate; settings: protein: recombinant; tags: N-terminal 6xHis (pET28b NheI-XhoI); label: 5'-fluorescein; hairpin, asymmetric internal loop
[3] = molecular target: T1, ribosomal protein S8 (B. anthracis) (Bacillus anthracis, UniProt Q81VR6 1-132); test: fluorescence anisotropy; 10 mM Mg acetate; settings: protein: recombinant; tags: N-terminal 6xHis (pET28b NheI-XhoI); label: 5'-fluorescein
[4] = molecular target: T1, ribosomal protein S8 (B. anthracis); test: 1:1 complex; settings: protein: recombinant; tags: N-terminal 6xHis (pET28b NheI-XhoI)

**Q.** What does the source list for CGCUGGCGGGAUUAAGUCGACUUCGGUCGAAACUGGUCCCGGCAGCG (structured_RNA) [helix 21 16S rRNA S8 site, fluorescein hairpin]?
**A.** Kd ([1]; asymmetric internal loop): 28 ± 7 nM; Kd [2]: 180 ± 60 nM

**Q.** CGCUGGCGGGUCAGUGAUCACUUCGGUGAUAUCAGACCCGGCAGCG (structured_RNA) [S8 RNA aptamer, fluorescein hairpin] was tested. Which Kd [3] did it give?
**A.** The Kd was 110 ± 30 nM.

**Q.** And the Kd ([1]; symmetric internal loop)?
**A.** The Kd was 19 ± 4 nM.

**Q.** Does GGGAUGCUCAGUGAUCCUUCGGGAUAUCAGGGCAUCCC (structured_RNA) [RNA-2 aptamer (crystal)] bind [4]?
**A.** Result: binds
